According to patent US20200392228A1 (PANDION OPERATIONS, published 2020):
Where a chain is given by its changes, count along the chain named. Read-outs that look alike come from different tables or passages of the source. Values belong to the binder of their own block, whether it stands above or below them.

Experiments:
[1] = molecular target: T1, mouse MAdCAM expressed on cells (mouse, UniProt Q61826 22-405); assay: cell binding
T1 construct: whole, on cells
T1 sequence (looked up): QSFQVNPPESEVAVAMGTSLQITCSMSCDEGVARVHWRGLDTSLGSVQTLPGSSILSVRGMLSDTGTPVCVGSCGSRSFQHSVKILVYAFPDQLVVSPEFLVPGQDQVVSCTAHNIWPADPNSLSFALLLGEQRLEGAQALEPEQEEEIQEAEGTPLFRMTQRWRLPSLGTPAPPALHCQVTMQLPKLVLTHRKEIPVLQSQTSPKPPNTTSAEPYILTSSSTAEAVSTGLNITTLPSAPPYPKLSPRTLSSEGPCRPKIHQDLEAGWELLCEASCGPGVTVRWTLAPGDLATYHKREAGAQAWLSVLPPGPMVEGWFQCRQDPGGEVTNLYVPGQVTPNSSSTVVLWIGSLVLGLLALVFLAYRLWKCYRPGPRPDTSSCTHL

[2] = molecular target: T2, human MAdCAM expressed on cells (human, UniProt Q13477 19-382); assay: cell binding
T2 construct: whole, on cells; also called MADCAM1
T2 sequence (looked up): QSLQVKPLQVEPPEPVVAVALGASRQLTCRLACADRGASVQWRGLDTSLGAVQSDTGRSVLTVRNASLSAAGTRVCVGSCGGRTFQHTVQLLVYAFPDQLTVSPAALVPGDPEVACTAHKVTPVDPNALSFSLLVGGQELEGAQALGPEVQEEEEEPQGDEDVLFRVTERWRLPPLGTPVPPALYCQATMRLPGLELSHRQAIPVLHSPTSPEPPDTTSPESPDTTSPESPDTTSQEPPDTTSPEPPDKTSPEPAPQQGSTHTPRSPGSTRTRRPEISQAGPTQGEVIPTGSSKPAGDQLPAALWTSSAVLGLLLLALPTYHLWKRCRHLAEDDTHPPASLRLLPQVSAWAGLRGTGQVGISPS

[3] = molecular target: T1, mouse MAdCAM expressed on cells; assay: cell binding; remark: listed apart in the source
[4] = molecular target: T2, human MAdCAM expressed on cells; assay: cell binding; remark: listed apart in the source
[5] = molecular target: T3, human MAdCAM protein (human, UniProt Q13477 19-317); assay: Octet
T3 construct: used for Octet, SPR, ELISA and plate capture; construct not described; also called recombinant human MAdCAM; soluble monomeric human MAdCAM
T3 sequence (looked up): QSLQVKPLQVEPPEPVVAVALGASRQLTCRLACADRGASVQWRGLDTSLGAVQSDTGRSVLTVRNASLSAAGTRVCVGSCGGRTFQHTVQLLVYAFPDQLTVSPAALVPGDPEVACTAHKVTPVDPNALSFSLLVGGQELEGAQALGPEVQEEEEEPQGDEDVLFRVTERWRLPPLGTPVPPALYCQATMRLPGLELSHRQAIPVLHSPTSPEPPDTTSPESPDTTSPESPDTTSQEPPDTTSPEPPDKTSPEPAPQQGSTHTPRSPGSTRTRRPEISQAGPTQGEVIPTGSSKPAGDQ

binding result [1]: no binding
binding result [2]: binds
B1: MAdCAM antibody Clone ID 37 of Table 7 (IgG) (antibody, V domains shown)
VH: EVQLLESGGGLVQPGGSLRLSCAASGFTFSDYGMPWVRQAPGKGLEWVSAISGSGGSTYYADSVKGRFTISRDNSKNTLYLQMNSLRAEDTAVYYCARDGGWQPAAILDYWGQGTLVTVSS
VL: DIQMTQSPSSLSASVGDRVTITCRASQGISNNLNWYQQKPGKAPKLLIYDASNLETGVPSRFSGSGSGTDFTLTISSLQPEDFATYYCQQSYSTPLTFGQGTKVEIK
notes: IgG format

binding result [1]: no binding
binding result [2]: binds
B2: MAdCAM antibody Clone ID 38 of Table 7 (IgG) (antibody, V domains shown)
VH: QVQLVQSGAEVKKPGASVKVSCKASGYTFTDYFLHWVRQAPGQGLEWMGWMNPTSGNTGYAQKFQGRVTMTRDTSTSTVYMELSSLRSEDTAVYYCAREGEGSGFDYWGQGTLVTVSS
VL: B1 VL with S30N, N31S, N32W, N34A, Q100G
notes: IgG format

binding result [1]: no binding
binding result [2]: binds
B3: MAdCAM antibody Clone ID 41 of Table 7 (IgG) (antibody, V domains shown)
VH: QVQLVQSGAEVKKPGASVKVSCKASGYTFTSYYMHWVRQAPGQGLEWMGIINPSGGSTSYAQKFQGRVTMTRDTSTSTVYMELSSLRSEDTAVYYCARDTGYSYGRYYYYGMDVWGQGTLVTVSS
VL: B1 VL with G28S, S30G, N31R, N32W, N34A, E55Q, T56S, T94I, L96I
notes: IgG format

binding result [1]: no binding
binding result [2]: binds
B4: MAdCAM antibody Clone ID 39 of Table 7 (IgG) (antibody, V domains shown)
VH: QVQLVQSGAEVKKPGASVKVSCKASGYTFTSYYMHWVRQAPGQGLEWMAWMNPNSGNTGYAQKFQGRVTMTRDTSTSTVYMELSSLRSEDTAVYYCARDYDFWSGSLGYWGQGTLVTVSS
VL: B1 VL with N32Y, N34A, D50A, N53S, E55Q, T56S, L96W
notes: IgG format

binding result [1]: no binding
binding result [2]: binds
B5: MAdCAM antibody Clone ID 42 of Table 7 (IgG) (antibody, V domains shown)
VH: QVQLVQSGAEVKKPGASVKVSCKASGYTLTDYYMHWVRQAPGQGLEWMGIINPSGGSTSYAQKFQGRVTMTRDTSTSTVYMELSSLRSEDTAVYYCAREEYSSSSGYFDYWGQGTLVTVSS
VL: B1 VL with N31S, N32W, N34A, D50A, N53S, E55Q, T56S
notes: IgG format

binding result [1]: no binding
binding result [2]: binds
B6: MAdCAM antibody Clone ID 43 of Table 7 (IgG) (antibody, V domains shown)
VH: QVQLVQSGAEVKKPGASVKVSCKASGYTFTSYGISWVRQAPGQGLEWMGWMHPKSGDTGLTQKFQGRVTMTRDTSTSTVYMELSSLRSEDTAVYYCARDTPYYYYGMDVWGQGTTVTVSS
VL: B1 VL with G28S, N31S, N32W, N34A, D50A, N53S, E55Q, T56S, T94V, L96I
notes: IgG format

binding result [1]: no binding
binding result [2]: binds
B7: MAdCAM antibody Clone ID 59 of Table 7 (IgG) (antibody, V domains shown)
VH: B1 VH with T28S, P35H
VL: B1 VL with Q100G
notes: IgG format

binding result [3]: binds
binding result [4]: binds
binding result [5]: binds
B8: MAdCAM antibody Clone ID 60 of Table 6 (scFv) (scFv)
scFv: EVQLLESGGGLVQPGGSLRLSCAASGFTFDDYTMHWVRQAPGKGLEWVSDISGSGGSTYYADSVKGRFTISRDNSKNTLYLQMNSLRAEDTAVYYCAKDVVVAGTPLHFDYWGQGTLVTVSSGGGGSGGGGSGGGGSGGGGSDIQMTQSPSSLSASVGDRVTITCQASQDISNYLNWYQQKPGKAPKLLIYAASYLQSGVPSRFSGSGSGTDFTLTISSLQPEDFATYYCQQAHNYPITFGQGTRLEIK

binding result [1]: no binding
binding result [2]: binds
B9: MAdCAM antibody Clone ID 57 of Table 7 (IgG) (antibody, V domains shown)
VH: EVQLLESGGGLVQPGGSLRLSCAASGFSVSSNYMSWVRQAPGKGLEWVAGISYDGSSKPYADSVKGRFTISRDNSKNTLYLQMNSLRAEDTAVYYCARSRGIAARPLQHWGQGTLVTVSS
VL: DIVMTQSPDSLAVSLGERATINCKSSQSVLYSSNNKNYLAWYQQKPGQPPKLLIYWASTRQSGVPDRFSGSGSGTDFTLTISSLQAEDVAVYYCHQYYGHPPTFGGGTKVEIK
notes: IgG format

binding result [4]: binds
binding result [5]: binds
B10: MAdCAM antibody Clone ID 1 of Table 6 (scFv) (scFv)
scFv: EVQLLESGGGLVQPGGSLRLSCAASGFTFSSYGMHWVRQAPGKGLEWVAVISDDGSDKYYADSVKGRFTISRDNSKNTLYLQMNSLRAEDTAVYYCTTSKYYYYYGMDVWGQGTTVTVSSGGGGSGGGGSGGGGSGGGGSDIQMTQSPSSLSASVGDRVTITCQASQDISKSLNWYQQKPGKAPKLLIYAASSLQSGVPSRFSGSGSGTDFTLTISSLQPEDFATYYCQQGYSTPLTFGGGTKVEIK

binding result [3]: binds
binding result [4]: binds
binding result [5]: binds
B11: MAdCAM antibody Clone ID 65 of Table 6 (scFv) (scFv)
scFv: QVQLVQSGAEVKKPGASVKVSCKASGYTFTRHWIHWVRQAPGQGLEWMGWINVKTGGAGYAQKFQGRVTMTRDTSTSTVYMELSSLRSEDTAVYYCARESSGWYGTDVWGQGTTVTVSSGGGGSGGGGSGGGGSGGGGSDIQMTQSPSSLSASVGDRATITCRASQSISNYLAWYQQKPGKAPKLLIYAASSLQSGVPSRFSGSGSGTDFTLTISSLQPEDFATYYCQQSNSFPLTFGGGTKVEIK

binding result [3]: binds
binding result [4]: binds
binding result [5]: binds
B12: MAdCAM antibody Clone ID 64 of Table 6 (scFv) (scFv)
scFv: EVQLLESGGGLVKPGGSLRLSCAASGFAFSSHWMHWVRQAPGKGLEWVAGTSGSGESRDYADFVKGRFTISRDDSKNTLYLQMNSLKTEDTAVYYCARETYYYYYMDVWGKGTTVTVSSGGGGSGGGGSGGGGSGGGGSDIQMTQSPSSLSASVGDRVTITCRASQGISNYLAWYQQKPGKAPKLLIYDAANLEGGVPSRFSGSGSGTDFTLTISSLQPEDFATYYCQQSDIFPPTFGQGTKVEIK

binding result [1]: no binding
binding result [2]: binds
B13: MAdCAM antibody Clone ID 44 of Table 7 (IgG) (antibody, V domains shown)
VH: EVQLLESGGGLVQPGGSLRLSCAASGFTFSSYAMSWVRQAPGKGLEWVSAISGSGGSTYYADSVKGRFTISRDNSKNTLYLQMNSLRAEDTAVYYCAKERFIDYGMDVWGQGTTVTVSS
VL: DIQMTQSPSSLSASVGDRVTITCQASQDISNYLNWYQQKPGKAPKLLIYAASSLQSGVPSRFSGSGSGTDFTLTISSLQPEDFATYYCQQTYSGWTFGPGTKVDIK
notes: IgG format

binding result [1]: no binding
binding result [2]: binds
B14: MAdCAM antibody Clone ID 52 of Table 7 (IgG) (antibody, V domains shown)
VH: EVQLLESGGGLVQPGGSLRLSCAASGFTFDDYGMSWVRQAPGKGLEWVSYISSSSSYIYYADSVKGRFTISRDNSKNTLYLQMNSLRAEDTAVYYCAREIAAAGFYGMDVWGQGTTVTVSS
VL: not shown
notes: IgG format

binding result [3]: binds
binding result [4]: binds
binding result [5]: binds
B15: MAdCAM antibody Clone ID 61 of Table 6 (scFv) (scFv)
scFv: EVQLLESGGGLVQPGGSLRLSCAASEFTFSNAWMSWVRQAPGKGLEWVASISSTSAYIDYADSVKGRFTISRDNSKNTLYLQMNSLRAEDTAVYYCAREVVGATTFDYWGQGTLVTVSSGGGGSGGGGSGGGGSGGGGSDIQMTQSPSSLSASVGDRVTITCRASQSISTWLAWYQQKPGKAPKLLIYAASSLQSGVPSRFSGSGSGTDFTLTISSLQPEDFATYYCQQANAFPPTFGQGTRLEIK

binding result [3]: binds
binding result [4]: binds
binding result [5]: binds
B16: MAdCAM antibody Clone ID 66 of Table 6 (scFv) (scFv)
scFv: EVQLLESGGGLVQPGGSLRLSCAASGFTFSSYWMHWVRQAPGKGLEWVAAISYDGKYKDYEDSVKGRFTISRDNSKNTLYLQMNSLRAEDTAVYYCARENKQWLASFDYWGQGTLVTVSSGGGGSGGGGSGGGGSGGGGSDIQMTQSPSSLSASVGDRVTITCQASQDISNFVNWYQQKPGKAPKLLIYAANLRSGVPSRFSGSGSGTDFTLTISSLQPEDFATYYCQQANSFPVTFGPGTKVDIK
